Experimental findings from patent publication US20240116985A1, “STAPLED PEPTIDES AND METHODS THEREOF” (priority 2020, published 2024) are described below.

Starred links: 1 amine or outer side, 2 acyl side, 3 side chain; linkers in the order of their positions; H or OH if unused. Positions of bridges follow the written chain, without caps; N, C: chain ends. Non-standard residues stand in square brackets, D forms with d. Primed or numbered codes have the meaning given here. No end group written: not given here. *: point of attachment. PyrS2″ = (S)-3-amino-1-((pent-4-en-1-yloxy)carbonyl)pyrrolidine-3-carboxylic acid (stapling residue), C=CCCCOC(=O)N1CC[C@@](N[*:1])(C(=O)[*:2])C1; B5(4) = 2,2-bis(4-pentenyl)glycine = 2-amino-2-(pent-4-en-1-yl)hept-6-enoic acid (stitching residue), C=CCCCC(CCCC=C)(N[*:1])C(=O)[*:2]; B5(5) = 2,2-bis(4-pentenyl)glycine, 2-amino-2-(pent-4-en-1-yl)hept-6-enoic acid (stitching residue), C=CCCCC(CCCC=C)(N[*:1])C(=O)[*:2]; TfeGA = (S)-2-amino-3-((carboxymethyl)(2,2,2-trifluoroethyl)amino)propanoic acid, O=C([C@H](CN(CC(=O)[*:3])CC(F)(F)F)N[*:1])[*:2]; PyrS2 = (S)-3-amino-1-((pent-4-en-1-yloxy)carbonyl)pyrrolidine-3-carboxylic acid, C=CCCCOC(=O)N1CC[C@@](N[*:1])(C(=O)[*:2])C1; Az2 = 3-amino-1-((pent-4-en-1-yloxy)carbonyl)azetidine-3-carboxylic acid, C=CCCCOC(=O)N1CC(N[*:1])(C(=O)[*:2])C1; Az3 = 3-amino-1-((hex-5-en-1-yloxy)carbonyl)azetidine-3-carboxylic acid, C=CCCCCOC(=O)N1CC(N[*:1])(C(=O)[*:2])C1; B5(12) = 2-amino-2-(pent-4-en-1-yl)hept-6-enoic acid (two olefin side chains), C=CCCCC(CCCC=C)(N[*:1])C(=O)[*:2]; B5(7) = 2-amino-2-(pent-4-en-1-yl)hept-6-enoic acid, two olefinic side chains, C=CCCCC(CCCC=C)(N[*:1])C(=O)[*:2]; B5(3) = 2,2-bis(4-pentenyl)glycine (stitching residue), C=CCCCC(CCCC=C)(N[*:1])C(=O)[*:2]; B5 = 2-amino-2-(pent-4-en-1-yl)hept-6-enoic acid, C=CCCCC(CCCC=C)(N[*:1])C(=O)[*:2]; Phe(3-COOH) = N[C@@H](Cc1cccc(C(=O)O)c1)C(=O)O; Phe(2-Cl) = N[C@@H](Cc1ccccc1Cl)C(=O)O; 2Nal = N[C@@H](Cc1ccc2ccccc2c1)C(=O)O; Bta = N[C@@H](Cc1csc2ccccc12)C(=O)O; αAllylPro = C=CC[C@@]1(C(=O)O)CCCN1; tBuAla = CC(C)(C)C[C@H](N)C(=O)O; 3Thi = N[C@@H](Cc1ccsc1)C(=O)O; S8 = C=CCCCCCC[C@](C)(N)C(=O)O; Thr(ol) = C[C@@H](O)[C@H](N)CO; hSer = N[C@@H](CCO)C(=O)O; Abu = CC[C@H](N)C(=O)O; Alaol = C[C@@H](CO)N*; Aib = CC(C)(N)C(=O)O

In assay [1] the target is full-length beta-Catenin (Uniprot ID P35222) (Homo sapiens (Human)) (UniProt P35222). Description: fluorescence polarization competition; full-length beta-catenin, 5FAM-TCF4(10-53) probe as competitor.
Target sequence in this assay (P35222 2-781 limits assumed): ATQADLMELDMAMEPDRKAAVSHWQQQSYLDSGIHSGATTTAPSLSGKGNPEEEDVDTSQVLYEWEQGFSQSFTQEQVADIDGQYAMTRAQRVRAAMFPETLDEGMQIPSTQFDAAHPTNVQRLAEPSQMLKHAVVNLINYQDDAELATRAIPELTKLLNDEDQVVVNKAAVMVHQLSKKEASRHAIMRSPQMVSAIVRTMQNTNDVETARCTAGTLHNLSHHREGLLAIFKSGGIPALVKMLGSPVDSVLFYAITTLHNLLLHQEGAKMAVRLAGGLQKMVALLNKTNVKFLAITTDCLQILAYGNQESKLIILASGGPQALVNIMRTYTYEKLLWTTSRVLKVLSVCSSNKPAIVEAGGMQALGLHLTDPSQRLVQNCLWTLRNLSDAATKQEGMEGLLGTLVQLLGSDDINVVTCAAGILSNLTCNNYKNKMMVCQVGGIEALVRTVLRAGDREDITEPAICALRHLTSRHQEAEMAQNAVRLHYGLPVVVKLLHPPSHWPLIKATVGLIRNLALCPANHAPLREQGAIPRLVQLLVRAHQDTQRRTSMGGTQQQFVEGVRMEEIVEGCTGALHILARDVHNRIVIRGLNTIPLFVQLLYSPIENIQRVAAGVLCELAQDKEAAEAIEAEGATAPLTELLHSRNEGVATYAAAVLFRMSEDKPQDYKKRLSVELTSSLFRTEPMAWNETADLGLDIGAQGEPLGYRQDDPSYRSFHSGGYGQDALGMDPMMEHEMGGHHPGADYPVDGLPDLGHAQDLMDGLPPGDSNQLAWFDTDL
Assay [2] shares this target. As to the kind of experiment: FP competition: displacement of 5FAM-TCF4(10-53) from full-length beta-catenin.
Target sequence in this assay (P35222 whole entry, the tested form may be a part): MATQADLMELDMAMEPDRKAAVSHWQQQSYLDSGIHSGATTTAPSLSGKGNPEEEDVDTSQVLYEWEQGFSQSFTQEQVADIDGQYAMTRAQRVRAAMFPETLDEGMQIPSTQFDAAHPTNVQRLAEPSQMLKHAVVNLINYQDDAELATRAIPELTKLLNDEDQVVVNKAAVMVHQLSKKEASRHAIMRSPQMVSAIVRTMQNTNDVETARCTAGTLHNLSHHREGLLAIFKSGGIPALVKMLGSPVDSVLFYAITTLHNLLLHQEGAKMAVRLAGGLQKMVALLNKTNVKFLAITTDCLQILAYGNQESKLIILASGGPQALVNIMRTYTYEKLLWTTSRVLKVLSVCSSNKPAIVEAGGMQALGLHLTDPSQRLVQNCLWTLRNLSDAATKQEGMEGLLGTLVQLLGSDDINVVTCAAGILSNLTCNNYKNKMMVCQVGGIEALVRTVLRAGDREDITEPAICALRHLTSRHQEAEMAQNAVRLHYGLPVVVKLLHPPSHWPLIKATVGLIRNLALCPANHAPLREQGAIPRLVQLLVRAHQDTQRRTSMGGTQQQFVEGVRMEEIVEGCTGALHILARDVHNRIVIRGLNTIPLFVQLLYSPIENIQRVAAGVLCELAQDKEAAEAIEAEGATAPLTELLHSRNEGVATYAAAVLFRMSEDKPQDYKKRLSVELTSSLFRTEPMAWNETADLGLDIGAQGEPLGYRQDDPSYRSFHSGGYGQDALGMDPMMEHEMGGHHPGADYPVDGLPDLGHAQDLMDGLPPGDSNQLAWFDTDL
Assay [3] addresses B-cat-Halo (beta-catenin HaloTag NanoBRET construct expressed in HEK293 cells) (UniProt P35222). As to the kind of experiment: NanoBRET Abs IC50 in HEK293 cells; Bcat-Halo, TCF4-Luc as competitor.
The target in assay [4] is full-length beta-Catenin (Uniprot ID P35222) (Homo sapiens (Human)) (UniProt P35222). Description: fluorescence polarization competition; full-length beta-catenin, competitor 5FAM-TCF4(10-53) probe.
The target in assay [5] is Bcat-Halo (UniProt P35222). As to the kind of experiment: NanoBRET Abs IC50 in HEK293 cells; Bcat-Halo, TCF4-Luc as competitor. On the technique in general: In BRET a luciferase serves as donor, and the signal depends on an acceptor being close.
Assay [6] deals with full-length beta-Catenin (Uniprot ID P35222) (Homo sapiens (Human)) (UniProt P35222). Description: competition fluorescence polarization; full-length beta-catenin, 5FAM-TCF4(10-53) probe as competitor. A general note: Polarisation of emitted light reports the rotation of a fluorescent probe.
Target sequence in this assay (P35222 whole entry, the tested form may be a part): as above
For assay [7], the target named is Bcat-Halo (beta-catenin HaloTag construct expressed in HEK293 cells) (UniProt P35222). Description: NanoBRET IC50 in HEK293 cells; Bcat-Halo with TCF4-Luc as competitor.
Assay [8] has as its target Bcat-Halo (UniProt P35222). As to the kind of experiment: NanoBRET Abs IC50, HEK293 cells, B-cat-Halo/TCF4-Luc; competitor TCF4-Luc.
The target in assay [9] is full-length beta-Catenin (Uniprot ID P35222) (Homo sapiens (Human)) (UniProt P35222). Description: FP competition vs 5FAM-TCF4(10-53), full-length beta-catenin.
Target sequence in this assay (P35222 2-781 limits assumed): as the sequence (P35222 2-781 limits assumed) above
For assay [10] the target is unchanged. Description: fluorescence polarization competition; 10 nM full-length beta-catenin with 10 nM 5FAM-TCF4 (residues 10-53) probe as competitor.
Target sequence in this assay (P35222 2-781 limits assumed): as above
Assay [11] shares this target. As to the kind of experiment: fluorescence polarization competition; 10 nM full-length beta-catenin with 10 nM 5FAM-labeled TCF4 residues 10-53 probe, peptide titrated.
Target sequence in this assay (P35222 whole entry, the tested form may be a part): as the sequence (P35222 whole entry, the tested form may be a part) above
The target in assay [12] is Bcat-Halo (UniProt P35222). As to the kind of experiment: NanoBRET in HEK293 cells, Bcat-Halo/TCF4-Luc (competitor TCF4-Luc); absolute IC50.
Assay [13] addresses full-length beta-Catenin (Uniprot ID P35222) (Homo sapiens (Human)) (UniProt P35222). As to the kind of experiment: fluorescence polarization competition; full-length beta-catenin with 5FAM-TCF4(10-53) probe as competitor.
Target sequence in this assay (P35222 whole entry, the tested form may be a part): as above
The target is the same in assay [14]. Description: fluorescence polarization competition; displacement of 5FAM-TCF4(10-53) from full-length beta-catenin.
Target sequence in this assay (P35222 whole entry, the tested form may be a part): as above
Assay [15] has the same target. As to the kind of experiment: fluorescence polarization competition; 10 nM full-length beta-catenin with 10 nM 5FAM-TCF4(10-53) probe.
Target sequence in this assay (P35222 2-781 limits assumed): as the sequence (P35222 2-781 limits assumed) above
Assay [16] has the same target. Description: fluorescence polarization competition; full-length beta-catenin, competitor probe 5FAM-TCF4(10-53).
Target sequence in this assay (P35222 2-781 limits assumed): as above
The target is the same in assay [17]. As to the kind of experiment: fluorescence polarization competition; full-length beta-catenin with 5FAM-labeled TCF4 (10-53) probe as competitor.
Target sequence in this assay (P35222 whole entry, the tested form may be a part): as the sequence (P35222 whole entry, the tested form may be a part) above
Assay [18] deals with B-cat-Halo (beta-catenin HaloTag NanoBRET construct expressed in HEK293 cells) (UniProt P35222). As to the kind of experiment: NanoBRET Abs IC50; HEK293 cells transfected with B-cat-Halo and TCF4-Luc (competitor: TCF4-Luc).
Sequence of B-cat-Halo (beta-catenin HaloTag NanoBRET construct expressed in HEK293 cells) (P35222 whole entry): as the sequence (P35222 whole entry, the tested form may be a part) above

Sequence of Bcat-Halo (P35222 whole entry): as the sequence (P35222 whole entry, the tested form may be a part) above
Sequence of Bcat-Halo (beta-catenin HaloTag construct expressed in HEK293 cells) (P35222 whole entry): as the sequence (P35222 whole entry, the tested form may be a part) above

Broadly, the IC50 is the concentration at which inhibition is half-maximal. High values mean a need for much substance, low ones inhibition by little substance. The EC50 is the concentration giving half of the maximal effect. A higher EC50 goes with a less potent agent. As for Ac-[αAllylPro]D[tBuAla][B5(4)]D[TfeGA]AAFT[PyrS2″][Phe(2-Cl)][Bta][Thr(ol)] (staple 1-4, 4-11) [I-1241], the half-maximal inhibitory concentration (IC50) was 19 nM in [1] and 15700 nM in assay [3]. Besides, the EC50 in assay [2] stood at 19 nM.
In assay [4], Ac-[αAllylPro]D[tBuAla][B5(5)]DDAAFN[S8]F[Bta]H-NH2 (staple 1-4, 4-11) [I-582] showed an EC50 of 17.5 nM. Further, the 50% inhibitory concentration (IC50) with Bcat-Halo [5] amounted to 15800 nM; in [6] it was 17.5 nM.
Ac-[αAllylPro]D[tBuAla][B5(12)]DNAAFN[PyrS2][3Thi][Bta]-NH2 (staple 1-4, 4-11) [I-857]: the half-maximal inhibitory concentration (IC50) came to 50600 nM in assay [7], 30600 nM with Bcat-Halo [8] and 15 nM in [9]. The same molecule gave an EC50 in assay [10] of 15 nM.

B1: I-1984 (peptide)
peptide: PD[tBuAla][B5]D[Phe(3-COOH)]AAFL[PyrS2][Phe(2-Cl)][Bta]Q-NH2
modifications: staple 4-11; staple (positions not given here); not fully specified (residue 1, N-terminus, bridges); printed as ProAm5-Asp-Npg-B5-Asp-3COOHF-Ala-Ala-Phe-Leu-PyrS2-2C1F-BztA-Gln-NH2
As to B1, in assay [11], the IC50 is 320 nM.
On to Ac-[αAllylPro]D[tBuAla][B5(7)]D[TfeGA]AAFN[PyrS2][3Thi][Bta]H-NH2 (staple 1-4, 4-11) [I-769], for which, in assay [4], the EC50 came out at 5 nM. For the same molecule, the IC50 in the assay with Bcat-Halo [12] is 13000 nM; in assay [13] it was 5 nM.
With Ac-[αAllylPro]D[Abu][B5(4)]DEAAFQ[S8]F[Bta]H-NH2 (staple 1-4, 4-11) [I-571], the concentration for a half-maximal effect (EC50) in assay [14] worked out at 32 nM. Moreover, the IC50 in the assay with Bcat-Halo [5] is 15600 nM; in assay [6], 32 nM.
Take Ac-[αAllylPro]D[tBuAla][B5(5)]DDAAFT[PyrS2″][3Thi][2Nal]Q-NH2 (staple 1-4, 4-11) [I-1233]: the 50% inhibitory concentration (IC50) is 24 nM in [1] and 54500 nM in assay [3]. The same molecule returned an EC50 in assay [2] of 24 nM.
Turning to Ac-[αAllylPro]D[Abu][B5]DDAAFN[S8]F[Bta]H-NH2 (staple 1-4, 4-11) [I-574], the EC50 in [4] was determined as 36 nM. The IC50 is greater than 20000 nM with Bcat-Halo [5] and 36 nM in assay [6].

B2: I-2618 (peptide)
peptide: Ac-[αAllylPro]D[tBuAla][B5(3)]D[Phe(3-COOH)][Aib]AFL[Az3][3Thi][Bta]Q-NH2
modifications: staple 1-4, 4-11; not fully specified; printed as Ac-PL3-Asp-Npg-B5-Asp-3COOHF-Aib-Ala-Phe-Leu-Az3-3Thi-BztA-Gln-NH2
Molecule B2 displayed a 50% inhibitory concentration (IC50) in [15] of 77 nM.

B3: I-1986 (peptide)
peptide: PD[tBuAla][B5]D[TfeGA]AAFT[PyrS2][Phe(2-Cl)][Bta]Q-NH2
modifications: staple 4-11; staple (positions not given here); not fully specified (residue 1, N-terminus, bridges)
B3: the IC50 in assay [11] was determined as 502 nM.
Regarding Ac-[αAllylPro]D[tBuAla][B5(3)]D[TfeGA]AAFF[PyrS2″]F[Bta]Q-NH2 (staple 1-4, 4-11) [I-988], the IC50 in assay [16] was determined as 5 nM; in assay [18], 13900 nM. In assay [17], the concentration giving a half-maximal response (EC50) came to 5 nM.
As to Ac-[αAllylPro]D[tBuAla][B5(3)]D[TfeGA]AAFF[PyrS2″][Phe(2-Cl)][Bta]S-NH2 (staple 1-4, 4-11) [I-990], the half-inhibitory concentration (IC50) in assay [16] is 41 nM; in assay [18], 8800 nM. In assay [17], this molecule registered an EC50 of 41 nM.
With Ac-[αAllylPro]D[tBuAla][B5(4)]D[TfeGA]AAFT[PyrS2″][Phe(2-Cl)][Bta]-Alaol (staple 1-4, 4-11) [I-1242], the values for the IC50 in assay [1] and in [3] were 30 nM and greater than 20000 nM, respectively. In assay [2], the EC50 was 30 nM.

B4: I-2619 (peptide)
peptide: Ac-[αAllylPro]D[tBuAla][B5(4)]D[Phe(3-COOH)][Aib]AFL[Az3][3Thi][Bta]Q-NH2
modifications: staple 1-4, 4-11; not fully specified; printed as Ac-PL3-Asp-Npg-B5-Asp-3COOHF-Aib-Ala-Phe-Leu-Az3-3Thi-BztA-Gln-NH2
Turning to B4, the IC50 in assay [15] stood at 36 nM.
Ac-[αAllylPro]D[tBuAla][B5(3)]D[Phe(3-COOH)][Aib]AFL[Az2][3Thi][Bta]Q-NH2 (staple 1-4, 4-11) [I-2617] gave an IC50 in assay [15] of 130 nM.

B5: I-1985 (peptide)
peptide: PD[tBuAla][B5]D[Phe(3-COOH)]AAFL[PyrS2][Phe(2-Cl)][Bta]Q-NH2
modifications: staple 4-11; staple (positions not given here); not fully specified (residue 1, N-terminus, bridges); printed as ProAm6-Asp-Npg-B5-Asp-3COOHF-Ala-Ala-Phe-Leu-PyrS2-2C1F-BztA-Gln-NH2
In the case of B5, the IC50 in assay [11] came to 325 nM.
On to Ac-[αAllylPro]D[tBuAla][B5(4)]DTAAFN[PyrS2][3Thi][Bta]Q-NH2 (staple 1-4, 4-11) [I-844], for which the IC50 in assay [7] was 10700 nM; in [14], 6 nM. In addition, the EC50 in assay [10] amounted to 6 nM.
For Ac-[αAllylPro]D[tBuAla][B5(3)]D[TfeGA]AAF[hSer][S8][Phe(2-Cl)][Bta]Q-NH2 (staple 1-4, 4-11) [I-996], the IC50 in assay [16] was determined as 21 nM; in assay [18] it was 11300 nM. In addition, the 50% effective concentration (EC50) in [17] turned out to be 21 nM.
Turning to Ac-[αAllylPro]D[tBuAla][B5(12)]DHAAFN[PyrS2][3Thi][Bta]Q-NH2 (staple 1-4, 4-11) [I-864], the IC50 in [7] is 29100 nM; with Bcat-Halo [8] it was 40000 nM; in [9] it was 12 nM. In addition, the EC50 in assay [10] is 12 nM.
In turn, Ac-[αAllylPro]D[tBuAla][B5(7)]D[TfeGA]AAFN[PyrS2][3Thi][Bta]H-NH2 (staple 1-4, 4-11) [I-770] had a concentration giving a half-maximal response (EC50) in assay [4] of 5 nM. Further, the results for the concentration for half-maximal inhibition (IC50) (in the assay with Bcat-Halo [12]; in assay [13]) were 13700 nM and 5 nM, respectively.
